# Results taken from PMC8539536, “Generation of a Soluble Form of Human Endoglin Fused to Green Fluorescent Protein” (International Journal of Molecular Sciences, 2021).
# B1: endoglin–GFP fusion protein (extracellular domain of human endoglin fused with EGFP, from pEGFP–N1/Eng.EC) (domain or fragment, UniProt P17813 26-586, looked up)
# chain: ETVHCDLQPVGPERGEVTYTTSQVSKGCVAQAPNAILEVHVLFLEFPTGPSQLELTLQASKQNGTWPREVLLVLSVNSSVFLHLQALGIPLHLAYNSSLVTFQEPPGVNTTELPSFPKTQILEWAAERGPITSAAELNDPQSILLRLGQAQGSLSFCMLEASQDMGRTLEWRPRTPALVRGCHLEGVAGHKEAHILRVLPGHSAGPRTVTVKVELSCAPGDLDAVLILQGPPYVSWLIDANHNMQIWTTGEYSFKIFPEKNIRGFKLPDTPQGLLGEARMLNASIVASFVELPLASIVSLHASSCGGRLQTSPAPIQTTPPKDTCSPELLMSLIQTKCADDAMTLVLKKELVAHLKCTITGLTFWDPSCEAEDRGDKFVLRSAYSSCGMQVSASMISNEAVVNILSSSSPQRKKVHCLNMDSLSFQLGLYLSPHFLQASNTIEPGQQSFVQVRVSPSVSEFLLQLDSCHLDLGPEGGTVELIQGRAAKGNCVSLLSPSPEGDPRFSFLLHFYTVPIPKTGTLSCTVALRPKTGSQDQEVHRTVFMRLNIISPDLSGCTSKG
# notes: then a linker of 19 amino acids and 239 residues of GFP, 844 amino acids in all; Disulfide-linked dimer of ~275 kDa; glycosylated; also called Eng–GFP; source: CHO-K1, stably transfected with pEGFP–N1/Eng.EC, secreted, in culture medium; not shown: EGFP, C-terminal, kept
# Molecular target: the molecule itself
# Test: SDS-PAGE under reducing and nonreducing conditions with Western blot; 3-day culture medium of CHO-K1 transfectants separated under reducing or nonreducing conditions; immunodetection with anti-GFP antibodies; positions of dimer and monomer compared
protein,measurement,value
B1,stoichiometry N,2
